From PMC6093860
Where two headings read alike, the source gives them in different places.

Experiments:
[1] = biological target: human complement component 9 (C9), wild type (human); assay: cryo-EM structure; polyC9 formed from purified human C9 at 1.1-1.5 mg mL^-1 in 10 mM HEPES pH 7.5, 50 mM NaCl with amphipol A8-35 (0.015-0.02 mg mL^-1), 37 °C overnight; ring of C9 subunits
[2] = biological target: human complement component 9 (C9), wild type (human); assay: as above; remark: listed apart in the source

stoichiometry N [1]: 21 | stoichiometry N [2]: 22
Substance: human complement component 9 (C9), wild type (natural protein)
